Assay results published in patent publication US20070042946A1.

Assays:
[1] = target: human α-thrombin (human), P00734; assay: amidolytic assay, 25° C.; from competitive inhibition at inhibitor above 20 nM (footnote c); non-competitive behaviour below 20 nM
[2] = target: human α-thrombin (human), P00734; assay: cell-based or functional assay
[3] = target: human α-thrombin (human), P00734; assay: amidolytic assay, Tos-Gly-Pro-Arg-pNA hydrolysis by human α-thrombin, 25° C.

Binder	Ki [1] [nM]	IC50 (DCT), clotting assay, 37° C.; recombinant peptide WD22-R-P^(d) [2] [nM]	IC50 (DCT), clotting assay, 37° C.; synthetic peptide [2] [nM]	Ki [3] [nM]	IC50 (DCT), clotting assay, 37° C. [2] [nM]	IC50 (DCT), clotting assay, 37° C.; recombinant peptide WD22-R-YP^(d) [2] [nM]
WDPRPQRHNDGDFEPIPEEYLQ (modifications not checked) [WD22-R-P]	171	8.1	6.7	–	–	–
FNPRP (modifications not checked) [FN]	–	–	–	> 2000	> 100000	–
WDPRPQLHNDGDFEPIPEEYLQ (modifications not checked) [WD22-L-P]	–	–	–	39	26	–
WDPRPQRHNDGDYEPIPEEYLQ (modifications not checked) [WD22-R-YP]	358	–	4.5	–	–	4.8
